Laboratory results as given in patent publication US20040248202A1, “Bacteriorhodopsin/G protein-coupled receptor chimeras” (Wisconsin Alumni Research Foundation, priority 1998, published 2004).
One block for each molecule: values may come before it.

Target: transducin (Homo sapiens, UniProt P11488)
Assay: GTPyS uptake assay: effect of BR-rhodopsin loop 3 chimeras on GDP-GTP exchange on transducin
Format: biochemical
Procedure: The ability of the chimeric protein to promote GTP-GDP exchange was evaluated for each of three BR-rhodopsin loop 3 chimeras by evaluating the effect of the chimera on the rate of GDP-GTP exchange on transducin using a GTPyS uptake assay, as described below.
Chimeric or bacteriorhodopsin protein (1.7 uM) was incubated with 0.8 uM holotransducin with 10 nM ^35S radiolabeled GTPyS in buffer (20 mM Hepes (pH 7.5), 5 mM MgCl2, 1 mM DTT, 0.1 mM EDTA, and 20 mM NaCl). The reaction was incubated at 30° C. for 5, 10, 15 or 30 minutes. The reaction was terminated by transferring aliquots of the reaction mixture to nitrocellulose filters (0.45 um) prewetted with wash buffer (10 mM Tris (pH 7.5), 5 mM MgCl2, 100 mM NaC1, 0.1 mM EDTA) and placed on a vacuum manifold. The filters were then washed with 8 ml of wash buffer. The filters were then placed overnight in scintillation vials filled with 20 ml of scintillation cocktail. The activity of the vials was counted by a Liquid Scintillation Counter. For the BR-Rhodopsin loop 3 chimeras, in which the rhodopsin intracellular loop 3 replaced the native BR intracellular loop 3 and was fused from T157 on BR TM 5 to V167 on BR TM 6, activity was determined by an increased uptake of GTPS over basal exchange by transducin alone.
A time course study was next performed for Rhodopsin Insert Y223 to M253 (3C)
The following experiments repeated the study of GTPγS exchange with a new culture of the BR-Rhodopsin chimera for Rhodopsin Insert Y223 (3C) as well as three new chimeras.

[1] = 10 Minutes, new culture of 3C and three new chimeras

Chain of transducin (P11488 2-350 limits assumed): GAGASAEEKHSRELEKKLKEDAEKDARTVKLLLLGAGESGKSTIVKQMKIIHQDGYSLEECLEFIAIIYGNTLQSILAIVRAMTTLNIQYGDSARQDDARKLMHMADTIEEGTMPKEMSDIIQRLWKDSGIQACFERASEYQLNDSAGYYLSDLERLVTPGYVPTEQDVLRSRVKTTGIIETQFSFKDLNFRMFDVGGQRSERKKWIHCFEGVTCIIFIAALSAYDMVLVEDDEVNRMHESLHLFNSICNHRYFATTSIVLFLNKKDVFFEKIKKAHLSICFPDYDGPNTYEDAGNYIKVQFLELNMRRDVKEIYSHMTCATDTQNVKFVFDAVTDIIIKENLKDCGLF
Chain of transducin (P62873 2-340 partner limits assumed): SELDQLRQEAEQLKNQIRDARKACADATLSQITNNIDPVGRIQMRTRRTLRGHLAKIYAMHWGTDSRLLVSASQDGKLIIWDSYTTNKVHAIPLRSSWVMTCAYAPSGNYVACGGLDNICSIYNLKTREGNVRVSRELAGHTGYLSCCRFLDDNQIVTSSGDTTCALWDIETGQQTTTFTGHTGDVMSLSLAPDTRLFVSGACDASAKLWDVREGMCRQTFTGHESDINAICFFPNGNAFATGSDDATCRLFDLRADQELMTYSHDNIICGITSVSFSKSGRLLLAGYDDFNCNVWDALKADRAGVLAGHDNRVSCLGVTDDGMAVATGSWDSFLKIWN
Chain of transducin (P63211 2-71 partner limits assumed): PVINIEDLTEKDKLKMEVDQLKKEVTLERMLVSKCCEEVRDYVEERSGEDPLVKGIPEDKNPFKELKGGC

- Activation (×100%) Over Basal Exchange [1]: 1.0 ×100%
B1: 3D: bacteriorhodopsin chimera, loop 3 replaced by bovine rhodopsin Q225-T251; loop amino acid sequence SEQ ID NO:32 (protein)
chain: QAQITGRPEWIWLALGTALMGLGTLYFLVKGMGVSDPDAKKFYAITTLVPAIAFTMYLSMLLGYGLTMVPFGGEQNPIYWARYADWLFTTPLLLLDLALLVDADQGTILALVGADGIMIGTGLVGALTKVYSYRFVWWAISTAAMLYILYVLFFGFTQLVFTVKEAAAQQQESATTQKAEKEVTVASTFKVLRNVTVVLWSAYPVVWLIGSEGAGIVPLNIETLLFMVLDVSAKVGFGLILLRSRAIFGEAEAPEPSAGDGAAATSD

- Activation (×100%) Over Basal Exchange [1]: 1.46 ×100%
B2: 3E: bacteriorhodopsin chimera, loop 3 replaced by bovine rhodopsin G224-M253; loop amino acid sequence SEQ ID NO:34 (protein)
chain: QAQITGRPEWIWLALGTALMGLGTLYFLVKGMGVSDPDAKKFYAITTLVPAIAFTMYLSMLLGYGLTMVPFGGEQNPIYWARYADWLFTTPLLLLDLALLVDADQGTILALVGADGIMIGTGLVGALTKVYSYRFVWWAISTAAMLYILYVLFFGFTGQLVFTVKEAAAQQQESATTQKAEKEVTRMVASTFKVLRNVTVVLWSAYPVVWLIGSEGAGIVPLNIETLLFMVLDVSAKVGFGLILLRSRAIFGEAEAPEPSAGDGAAATSD

- Activation (×100%) Over Basal Exchange [1]: 1.17 ×100%
B3: 3B: bacteriorhodopsin chimera, loop 3 replaced by bovine rhodopsin Y223-T251; loop amino acid sequence SEQ ID NO:28 (protein)
chain: QAQITGRPEWIWLALGTALMGLGTLYFLVKGMGVSDPDAKKFYAITTLVPAIAFTMYLSMLLGYGLTMVPFGGEQNPIYWARYADWLFTTPLLLLDLALLVDADQGTILALVGADGIMIGTGLVGALTKVYSYRFVWWAISTAAMLYILYVLFFGFTYGQLVFTVKEAAAQQQESATTQKAEKEVTVASTFKVLRNVTVVLWSAYPVVWLIGSEGAGIVPLNIETLLFMVLDVSAKVGFGLILLRSRAIFGEAEAPEPSAGDGAAATSD

- Activation (3C) (×10°) over Basal Exchange (100 μM GDP, 10 Minutes): 1.67 ×10°
- Activation by 3C (×100%) Over Basal Exchange (5 Minutes): 1.56 ×100%
- Activation by 3C (×100%) Over Basal Exchange (10 Minutes): 1.95 ×100%
- Specific counts (Lattice Form) (10 Minutes, 100 uM GDP): 12577 counts
- Activation (×100%) Over Basal Exchange [1]: 1.44 ×100%
- Specific counts (Lattice Form) [1]: 77125 counts
- Specific counts (Lattice Form) (10 Minutes, no peptide (8 uM peptide experiment)): 51423 counts
- SPECIFIC COUNTS: (Lattice Form) (10 Minutes, no peptide (50 uM peptide experiment)): 93448 counts
- Activation by 3C (×100%) Over Basal Exchange (15 Minutes): 1.97 ×100%
- Specific counts (Lattice Form) (time course, 5 min): 26273 counts
- Specific counts (Lattice Form) (time course, 10 min): 51423 counts
- Specific counts (Lattice Form) (time course, 15 min): 66566 counts
B4: 3C: bacteriorhodopsin chimera, loop 3 replaced by bovine rhodopsin Y223-M253; loop amino acid sequence SEQ ID NO:30 (protein)
chain: QAQITGRPEWIWLALGTALMGLGTLYFLVKGMGVSDPDAKKFYAITTLVPAIAFTMYLSMLLGYGLTMVPFGGEQNPIYWARYADWLFTTPLLLLDLALLVDADQGTILALVGADGIMIGTGLVGALTKVYSYRFVWWAISTAAMLYILYVLFFGFTYGQLVFTVKEAAAQQQESATTQKAEKEVTRMVASTFKVLRNVTVVLWSAYPVVWLIGSEGAGIVPLNIETLLFMVLDVSAKVGFGLILLRSRAIFGEAEAPEPSAGDGAAATSD
